Measured values as given in patent publication US20230406942A1 (HORIZON THERAPEUTICS IRELAND DAC, published 2023).
Positions count from the first letter of the chain named. Values belong to the binder of their own block, whether it stands above or below them.

Legend:
[1] = target: T1, IGF-1R on NCI-H322 cells (UniProt P08069 31-1367, limits assumed); assay: cell-based or functional assay
[2] = target: T1, IGF-1R on NCI-H322 cells; assay: cell-based or functional assay; remark: listed apart in the source
[3] = target: T2, Human IGF-I R (Glu 31-Asn 932 with a polyhistidine tag at the C-terminus) (human, UniProt P08069 31-932); assay: BLI (Octet RED96e), His-tagged IGF-1R on Ni-NTA sensors, Fab 0-100 nM, 1:1 global fit
T2 construct: range 31-932; Bought protein; captured on Ni-NTA biosensors for BLI; also called IGF1R; IGF-1R; not shown: C-terminal polyhistidine tag
Text: Human IGF-I R (Glu 31-Asn 932 with a polyhistidine tag at the C-terminus) expressed from human 293 cells (HEK293) was purchased from ACROBiosystems (Newark, DE). Dip and Read Ni-NTA (NTA) Biosensors from Sartorius (Bohemia, NY) pre-immobilized with nickel-charged Tris-NTA, were enabled for kinetic characterization of novel anti-human IGF-I R antibodies. Briefly, antibody variants were digested into purified Fab fragments (to enable 1:1 binding and global fitting). The Fab[…] Fab kit from GENOVIS (Cambridge, MA) was used to generate a monovalent binding Fab domain of each antibody variant, Fab fragments are subsequently separated from Fc using the CaptureSelect™ Fc column. Binding of variant Fabs to NTA-captured human IGF-I R (His-tagged) was monitored by biolayer interferometry (BLI) on an Octet RED96e (Sartorius). NTA biosensors were charged with 10 mM NiCl2, then loaded with His-tagged human IGF-I R at approximately 5 ug/mL to an average loading response of 0.67 nm shift. Variant Fabs were assayed from 0-100 nM in 10X kinetics buffer (1X PBS, 0.1% BSA, 0.02% Tween-20 plus Kathon as a preservative) from Sartorius. Binding kinetics and affinities were determined using the Octet Analysis Studio Software (Sartorius) by applying a 1:1 global fitting to double-referenced subtracted data.

[4] = target: T3, IGF-1R (coated on Maxisorp plates) (UniProt P08069 31-932, limits assumed); assay: competition ELISA, plate-coated IGF-1R, antibody titrated against 200 ng/mL IGF-2 biotin
T3 construct: also called the receptor
Experimental: (§1) Maxisorp plates were coated with 1.5 ug/mL of IGF-1R overnight at 4° C. Plates were washed and blocked with 1% BSA. Subsequently, serially diluted anti-IGF1R antibodies were incubated for 30 min at room temperature followed by an incubation with a final concentration of 200 ng/mL of IGF-2 biotin. Plates were washed and streptavidin-horseradish peroxidase was added. After a final wash, 3,3′,5,5′-Tetramethylbenzidine was added for 8 minutes. The reaction was terminated with a HCL based stop solution. Plates were measured for absorbance at 450 nm, and the data was analyzed using Softmax Pro 7.1 software.

[5] = target: T3, IGF-1R (coated on Maxisorp plates); assay: competition ELISA, plate-coated IGF-1R, antibody titrated against 20 ng/mL IGF-1 biotin
Experimental: as §1, with “20” for “200”, “IGF-1” for “of IGF-2”

T3 sequence (P08069 31-932 limits assumed): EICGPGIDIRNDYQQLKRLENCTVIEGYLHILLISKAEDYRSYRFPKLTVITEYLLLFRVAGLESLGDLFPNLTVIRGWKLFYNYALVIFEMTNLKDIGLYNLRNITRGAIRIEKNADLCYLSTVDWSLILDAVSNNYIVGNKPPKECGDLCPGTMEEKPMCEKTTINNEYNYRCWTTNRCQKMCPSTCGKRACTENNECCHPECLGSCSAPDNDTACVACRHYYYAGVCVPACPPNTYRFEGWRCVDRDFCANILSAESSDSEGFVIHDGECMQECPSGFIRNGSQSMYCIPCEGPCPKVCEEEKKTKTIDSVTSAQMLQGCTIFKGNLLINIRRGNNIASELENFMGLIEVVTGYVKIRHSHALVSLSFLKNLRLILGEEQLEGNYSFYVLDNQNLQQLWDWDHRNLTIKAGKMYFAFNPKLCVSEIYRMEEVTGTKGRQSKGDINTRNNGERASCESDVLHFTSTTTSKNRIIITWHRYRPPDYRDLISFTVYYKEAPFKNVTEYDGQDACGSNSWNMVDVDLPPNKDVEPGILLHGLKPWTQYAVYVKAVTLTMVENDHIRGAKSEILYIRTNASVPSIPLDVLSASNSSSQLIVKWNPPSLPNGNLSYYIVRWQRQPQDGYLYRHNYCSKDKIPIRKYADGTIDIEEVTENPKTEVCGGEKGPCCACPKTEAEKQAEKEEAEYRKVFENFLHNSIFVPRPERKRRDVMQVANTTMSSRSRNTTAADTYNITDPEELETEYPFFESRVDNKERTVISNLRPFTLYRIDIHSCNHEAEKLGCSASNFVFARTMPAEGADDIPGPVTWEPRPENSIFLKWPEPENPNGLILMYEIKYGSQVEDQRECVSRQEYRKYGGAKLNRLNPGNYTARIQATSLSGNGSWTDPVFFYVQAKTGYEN
T2 sequence (P08069 31-932 limits assumed): as above
T1 sequence (P08069 31-1367 limits assumed): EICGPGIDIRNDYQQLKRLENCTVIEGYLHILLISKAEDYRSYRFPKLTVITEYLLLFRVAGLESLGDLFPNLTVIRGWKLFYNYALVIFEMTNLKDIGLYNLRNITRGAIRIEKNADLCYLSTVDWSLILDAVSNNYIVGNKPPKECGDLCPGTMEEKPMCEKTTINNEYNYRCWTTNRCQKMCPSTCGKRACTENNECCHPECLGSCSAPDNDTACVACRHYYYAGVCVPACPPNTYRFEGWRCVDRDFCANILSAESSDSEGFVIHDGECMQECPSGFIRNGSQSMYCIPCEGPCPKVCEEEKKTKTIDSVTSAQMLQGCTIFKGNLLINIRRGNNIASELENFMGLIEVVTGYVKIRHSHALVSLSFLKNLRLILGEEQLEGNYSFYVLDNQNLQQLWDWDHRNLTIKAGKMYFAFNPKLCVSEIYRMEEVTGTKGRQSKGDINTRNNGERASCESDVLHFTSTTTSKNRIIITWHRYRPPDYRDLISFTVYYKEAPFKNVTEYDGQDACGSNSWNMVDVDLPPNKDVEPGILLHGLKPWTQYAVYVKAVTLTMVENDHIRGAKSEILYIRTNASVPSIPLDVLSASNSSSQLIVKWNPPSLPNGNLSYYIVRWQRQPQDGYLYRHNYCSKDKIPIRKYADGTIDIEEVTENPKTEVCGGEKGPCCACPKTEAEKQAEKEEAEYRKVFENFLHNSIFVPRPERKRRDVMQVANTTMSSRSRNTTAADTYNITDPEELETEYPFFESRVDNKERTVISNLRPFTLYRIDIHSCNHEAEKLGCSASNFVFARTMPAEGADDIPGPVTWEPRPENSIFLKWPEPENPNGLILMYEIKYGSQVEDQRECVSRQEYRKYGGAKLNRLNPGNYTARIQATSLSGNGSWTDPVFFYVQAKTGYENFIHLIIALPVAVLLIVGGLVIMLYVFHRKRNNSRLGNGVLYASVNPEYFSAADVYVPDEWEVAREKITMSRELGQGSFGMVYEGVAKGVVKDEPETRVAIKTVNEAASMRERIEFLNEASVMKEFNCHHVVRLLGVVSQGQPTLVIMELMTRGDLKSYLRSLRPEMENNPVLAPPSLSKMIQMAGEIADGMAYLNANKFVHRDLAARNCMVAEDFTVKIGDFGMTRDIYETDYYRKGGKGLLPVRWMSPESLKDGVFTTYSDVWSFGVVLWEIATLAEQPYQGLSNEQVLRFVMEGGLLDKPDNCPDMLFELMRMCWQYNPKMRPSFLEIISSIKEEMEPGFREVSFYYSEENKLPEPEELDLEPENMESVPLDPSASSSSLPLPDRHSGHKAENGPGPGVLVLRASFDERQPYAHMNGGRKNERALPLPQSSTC

B1: Teprotumumab reference antibody (antibody, V domains shown)
VH: QVELVESGGGVVQPGRSQRLSCAASGFTFSSYGMHWVRQAPGKGLEWVAIIWFDGSSTYYADSVRGRFTISRDNSKNTLYLQMNSLRAEDTAVYFCARELGRRYFDLWGRGTLVSVSS
VL: EIVLTQSPATLSLSPGERATLSCRASQSVSSYLAWYQQKPGQAPRLLIYDASKRATGIPARFSGSGSGTDFTLTISSLEPEDFAVYYCQQRSKWPPWTFGQGTKVESK
- IC50 of inhibition of IGF-1R phosphorylation [1]: 0.397 mg/L
- Inhibition of Phosphorylation IC50 [2]: 0.0106 mg/L

B4: E01 Fab (Fab, V domains shown)
VH: B1 VH
VL: B1 VL with W94Y
- Kd [3]: 0.179 nM
- koff [3]: 0.000298 s⁻¹
- kon [3]: 2.66e+06 M⁻¹ s⁻¹

B6: A11 antibody (antibody, V domains shown)
VH: B1 VH with I50Y
VL: B1 VL with W94Y
notes: Whole antibody
- Inhibition of Phosphorylation IC50 [2]: 0.0115 mg/L
- IC50 [4]: 0.158 mg/L
- IC50 [5]: 0.351 mg/L

B11: D03 Fab (Fab, V domains shown)
VH: B1 VH with Y32H, I50Y
VL: B1 VL with Y32A, W94Y
notes: also called clone D03
- Kd [3]: 0.407 nM
- koff [3]: 0.000603 s⁻¹
- kon [3]: 1.48e+06 M⁻¹ s⁻¹

B12: B09 Fab (Fab, V domains shown)
VH: B1 VH with Y32H, W52A, F53G, G55A, S57T
VL: B1 VL with W94Y
- Kd [3]: 1.13 nM
- koff [3]: 0.000799 s⁻¹
- kon [3]: 705000 M⁻¹ s⁻¹

B14: B02 Fab (Fab, V domains shown)
VH: B1 VH with Y32T, I50Y, G101N
VL: B1 VL with W94Y
- Kd [3]: 1.54 nM
- koff [3]: 0.00125 s⁻¹
- kon [3]: 810000 M⁻¹ s⁻¹

B15: A11 Fab (Fab, V domains shown)
VH: B1 VH with I50Y
VL: B1 VL with W94Y
- Kd [3]: 0.849 nM
- koff [3]: 0.00076 s⁻¹
- kon [3]: 895000 M⁻¹ s⁻¹

B16: C10 Fab (Fab, V domains shown)
VH: B1 VH with Y32A, F53A
VL: B1 VL with W94Y
- Kd [3]: 0.447 nM
- koff [3]: 0.000485 s⁻¹
- kon [3]: 1.08e+06 M⁻¹ s⁻¹

B17: F02 Fab (Fab, V domains shown)
VH: B1 VH with Y32H, I50T
VL: B1 VL with Y32T, W94Y
- Kd [3]: 1.92 nM
- koff [3]: 0.0023 s⁻¹
- kon [3]: 1.2e+06 M⁻¹ s⁻¹

Further lines, results first:

- IC50 of inhibition of IGF-1R phosphorylation [1]: 0.0205 mg/L
B2: D03-YTE (antibody, V domains shown)
VH: B1 VH with Y32H, I50Y
VL: B1 VL with Y32A, W94Y

- Inhibition of Phosphorylation IC50 [2]: 0.0065 mg/L
B3: C10 antibody (antibody, V domains shown)
VH: B1 VH with Y32A, F53A
VL: B1 VL with W94Y

- Inhibition of Phosphorylation IC50 [2]: 0.0067 mg/L
B5: D10 antibody (antibody, V domains shown)
VH: B1 VH with W52N
VL: B1 VL with W94Y

- Inhibition of Phosphorylation IC50 [2]: 0.0162 mg/L
- IC50 [4]: 0.176 mg/L
- IC50 [5]: 0.395 mg/L
B7: B10 antibody (antibody, V domains shown)
VH: B1 VH with I50T
VL: B1 VL with W94Y
notes: Whole antibody

- Inhibition of Phosphorylation IC50 [2]: 0.0211 mg/L
- IC50 [4]: 0.157 mg/L
- IC50 [5]: 0.452 mg/L
B8: H11 antibody (antibody, V domains shown)
VH: B1 VH with I50T, F53H
VL: B1 VL with Y32A, S92G, W94Y
notes: Whole antibody

- Inhibition of Phosphorylation IC50 [2]: 0.0135 mg/L
- IC50 [4]: 0.115 mg/L
- IC50 [5]: 0.386 mg/L
B9: B02 antibody (antibody, V domains shown)
VH: B1 VH with Y32T, I50Y, G101N
VL: B1 VL with W94Y
notes: Whole antibody

- Kd [3]: 0.898 nM
- koff [3]: 0.000826 s⁻¹
- kon [3]: 921000 M⁻¹ s⁻¹
B10: B10 Fab (Fab, V domains shown)
VH: B1 VH with I50T
VL: B1 VL with W94Y

- Inhibition of Phosphorylation IC50 [2]: 0.0083 mg/L
- IC50 [4]: 0.153 mg/L
- IC50 [5]: 0.337 mg/L
B13: B09 antibody (antibody, V domains shown)
VH: B1 VH with Y32H, W52A, F53G, G55A, S57T
VL: B1 VL with W94Y
notes: Whole antibody

- Inhibition of Phosphorylation IC50 [2]: 0.0064 mg/L
- IC50 [4]: 0.141 mg/L
- IC50 [5]: 0.388 mg/L
B18: E01 antibody (antibody, V domains shown)
VH: B1 VH
VL: B1 VL with W94Y
notes: Whole antibody

- Inhibition of Phosphorylation IC50 [2]: 0.0049 mg/L
- IC50 [4]: 0.161 mg/L
- IC50 [5]: 0.388 mg/L
B19: D03 antibody (antibody, V domains shown)
VH: B1 VH with Y32H, I50Y
VL: B1 VL with Y32A, W94Y
notes: Whole antibody; also called clone D03

- Kd [3]: 0.418 nM
- koff [3]: 0.000744 s⁻¹
- kon [3]: 1.78e+06 M⁻¹ s⁻¹
B20: H11 Fab (Fab, V domains shown)
VH: B1 VH with I50T, F53H
VL: B1 VL with Y32A, S92G, W94Y
